In test [1] the target is TGF-β1 (UniProt P01137). The test can be described thus: cell-based or functional assay.
The target in the next test is TGF-β3 (UniProt P10600). The test can be described thus: cell-based or functional assay.
In test [2] the target is TGF-β1 (UniProt P01137).
Test [3] has as its target TGF-β1 (UniProt P01137). This is another data set of the same source.

Like-named read-outs stand apart in the source and are kept apart here.

Chain of T22d35 (P37173 other isoform, or with tags, fused parts or gaps limits assumed): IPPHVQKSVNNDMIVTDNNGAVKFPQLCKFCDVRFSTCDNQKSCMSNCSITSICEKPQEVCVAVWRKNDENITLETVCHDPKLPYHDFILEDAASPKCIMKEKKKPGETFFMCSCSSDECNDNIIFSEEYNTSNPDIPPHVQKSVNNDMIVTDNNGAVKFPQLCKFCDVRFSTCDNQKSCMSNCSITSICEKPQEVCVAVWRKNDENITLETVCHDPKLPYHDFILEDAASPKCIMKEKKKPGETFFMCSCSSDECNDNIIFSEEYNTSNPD
Chain of TGF-β1 (P01137 279-390 limits assumed): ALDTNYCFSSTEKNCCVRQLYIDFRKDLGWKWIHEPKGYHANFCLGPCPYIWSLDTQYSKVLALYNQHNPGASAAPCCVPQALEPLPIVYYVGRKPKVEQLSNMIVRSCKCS
Chain of TGF-β3 (P10600 301-412 limits assumed): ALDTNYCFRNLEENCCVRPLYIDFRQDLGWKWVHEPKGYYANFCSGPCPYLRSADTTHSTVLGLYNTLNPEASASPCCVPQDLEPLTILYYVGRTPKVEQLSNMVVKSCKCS

T2-hIgG1Fc fusion from R&D: the Av IC50, TGF-β neutralization, Mv1Lu cell luciferase reporter assay came to 506 pM with TGF-β1 [1] and 323 pM with TGF-β3.
For the substance “T22d35 (from UniProt P37173 24-222) (receptor)”, in the test with TGF-β1 [2], the Fold Change Fc-T2m, A549 cell IL-11 release assay [table] is 0.1 fold; the Fold Change T22d35, A549 cell IL-11 release assay [table] is 1 fold; the IC50, A549 cell IL-11 release assay [table] stood at 580 pM. Also, the IC50, A549 cell IL-11 release assay [table] with TGF-β1 [3] was 526 pM. For the same substance, in the test with TGF-β1 [1], the Av IC50, TGF-β neutralization, Mv1Lu cell luciferase reporter assay came out at 1230 pM; the IC50, A549 cell IL-11 release assay was found to be 500 pM; the IC50, A549 cell IL-11 release assay (second set, FIG. 4C) is 500 pM. In the test with TGF-β3, the Av IC50, TGF-β neutralization, Mv1Lu cell luciferase reporter assay was found to be 33 pM.

These data come from patent US20200231652A1.
